Experimental data as given in US7217548B2, “N-acetylglucosaminlytransferase and polynucleotide encoding the same” (National Institute of Advanced Industrial Science and …, priority 2000, dated 2007).

System: T1, CC(=O)N[C@@H](C)C(=O)N[C@@H](C)C(=O)N1CCC[C@H]1C(=O)N[C@H](C(=O)N1CCC[C@H]1C(=O)N[C@H](C(=O)N[C@@H](C)C(=O)N[C@@H](C)C(=O)N1CCC[C@H]1C(N)=O)C(C)C)[C@@H](C)O[C@H]1O[C@H](CO)[C@@H](O)[C@H](O)[C@@H]1O
T1 construct: 595 amino acids from 66: Ser thereof (66: Ser to 660: Thr), respectively; Ig kappa chain secretory signal (N); made in house; host or cells: HEK293T (transient, secreted into serum-free medium)
Assay: Substrate specificity and kinetic parameters of solubilized human OMGnT enzyme (L)
Type: biochemical
Details: other: 125 mM MOPS pH7.3, 0.2 mM UDP-GlcNAc, 7.5 mM MnCl2, 37° C., 2 hours, pH 7.3
Procedure: […] […] The reaction mixture was then filtered with a filter Ultrafree-MC (Millipore) having a pore size of 0.22 μm to remove solids, and analyzed by Wakopak 5C18-200 column (4.6×250 mm, Wako Pure Chemical Industries, Ltd.). The separation was carried out using concentration gradient with Solution A and Solution B at a flow rate of 1.0 ml/min. […] Peptide detection was carried out at 214 nm, and the radioactivity of each fraction was assayed using a liquid scintillation counter.
The activity of GnT-1 was assayed with a method by Yoshida et al. [Yoshida, S., Suzuki, M., Yamano, S., Takeuchi, M., Ikenaga, H., Kioka, N., Sakai, H., and Komano, T., Glycobiology, (1999), 9, 53–58] as described below. A 20 μl reaction solution was prepared by adding an enzyme source thereto so as to have a final concentration of 100 mM MES (pH 6.0), 20 mM MnCl2, 5 μM Manα1–6(Manα1–3)Manα1–6(Manα1–3)Manβ1–4GlcNAcβ1–4GlcNAc-PA(M5GN2-PA; Takara Shuzo, PA-Sugar Chain 017), 1 mM UDP-GlcNAc, 100 mM GlcNAc, 5 mM AMP, 1% Triton X-100, and 0.2% BSA. The reaction solution was incubated at 37° C. for 1 hour, and the reaction was terminated in boiling water. Thereafter, the reaction solution was analyzed by a reverse phase HPLC (Cosmosil 5C18-AR column) available from Nacalai Tesque. […]

Sequence of His-Xpress-sOMGnT(L) (Homo sapiens; M623V) (chain, as listed by the source M623V): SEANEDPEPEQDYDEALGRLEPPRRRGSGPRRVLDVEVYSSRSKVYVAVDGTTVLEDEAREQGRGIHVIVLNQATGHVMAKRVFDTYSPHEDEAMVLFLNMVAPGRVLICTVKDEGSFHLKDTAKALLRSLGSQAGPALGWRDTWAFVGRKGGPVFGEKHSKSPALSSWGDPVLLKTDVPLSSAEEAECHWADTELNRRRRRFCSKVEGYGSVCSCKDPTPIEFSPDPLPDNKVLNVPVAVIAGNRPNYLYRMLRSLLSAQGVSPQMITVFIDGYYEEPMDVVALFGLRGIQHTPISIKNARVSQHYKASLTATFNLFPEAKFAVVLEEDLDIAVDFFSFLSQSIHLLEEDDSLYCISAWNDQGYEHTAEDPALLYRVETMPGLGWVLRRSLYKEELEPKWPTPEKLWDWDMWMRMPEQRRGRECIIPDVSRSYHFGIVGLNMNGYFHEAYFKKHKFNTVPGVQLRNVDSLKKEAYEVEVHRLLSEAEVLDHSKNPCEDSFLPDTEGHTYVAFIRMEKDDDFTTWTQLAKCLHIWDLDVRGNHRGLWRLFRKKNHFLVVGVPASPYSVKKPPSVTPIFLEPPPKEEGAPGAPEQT

His-Xpress-sOMGnT(L) (Homo sapiens; M623V)
Km: 1850 µM
